The text below walks through data of IntAct's records for PubMed 18275819.

For the experiment, the target named is cac1c_human CACNA1C (UniProt Q13936).
Chain of cac1c_human CACNA1C (Q13936 whole entry): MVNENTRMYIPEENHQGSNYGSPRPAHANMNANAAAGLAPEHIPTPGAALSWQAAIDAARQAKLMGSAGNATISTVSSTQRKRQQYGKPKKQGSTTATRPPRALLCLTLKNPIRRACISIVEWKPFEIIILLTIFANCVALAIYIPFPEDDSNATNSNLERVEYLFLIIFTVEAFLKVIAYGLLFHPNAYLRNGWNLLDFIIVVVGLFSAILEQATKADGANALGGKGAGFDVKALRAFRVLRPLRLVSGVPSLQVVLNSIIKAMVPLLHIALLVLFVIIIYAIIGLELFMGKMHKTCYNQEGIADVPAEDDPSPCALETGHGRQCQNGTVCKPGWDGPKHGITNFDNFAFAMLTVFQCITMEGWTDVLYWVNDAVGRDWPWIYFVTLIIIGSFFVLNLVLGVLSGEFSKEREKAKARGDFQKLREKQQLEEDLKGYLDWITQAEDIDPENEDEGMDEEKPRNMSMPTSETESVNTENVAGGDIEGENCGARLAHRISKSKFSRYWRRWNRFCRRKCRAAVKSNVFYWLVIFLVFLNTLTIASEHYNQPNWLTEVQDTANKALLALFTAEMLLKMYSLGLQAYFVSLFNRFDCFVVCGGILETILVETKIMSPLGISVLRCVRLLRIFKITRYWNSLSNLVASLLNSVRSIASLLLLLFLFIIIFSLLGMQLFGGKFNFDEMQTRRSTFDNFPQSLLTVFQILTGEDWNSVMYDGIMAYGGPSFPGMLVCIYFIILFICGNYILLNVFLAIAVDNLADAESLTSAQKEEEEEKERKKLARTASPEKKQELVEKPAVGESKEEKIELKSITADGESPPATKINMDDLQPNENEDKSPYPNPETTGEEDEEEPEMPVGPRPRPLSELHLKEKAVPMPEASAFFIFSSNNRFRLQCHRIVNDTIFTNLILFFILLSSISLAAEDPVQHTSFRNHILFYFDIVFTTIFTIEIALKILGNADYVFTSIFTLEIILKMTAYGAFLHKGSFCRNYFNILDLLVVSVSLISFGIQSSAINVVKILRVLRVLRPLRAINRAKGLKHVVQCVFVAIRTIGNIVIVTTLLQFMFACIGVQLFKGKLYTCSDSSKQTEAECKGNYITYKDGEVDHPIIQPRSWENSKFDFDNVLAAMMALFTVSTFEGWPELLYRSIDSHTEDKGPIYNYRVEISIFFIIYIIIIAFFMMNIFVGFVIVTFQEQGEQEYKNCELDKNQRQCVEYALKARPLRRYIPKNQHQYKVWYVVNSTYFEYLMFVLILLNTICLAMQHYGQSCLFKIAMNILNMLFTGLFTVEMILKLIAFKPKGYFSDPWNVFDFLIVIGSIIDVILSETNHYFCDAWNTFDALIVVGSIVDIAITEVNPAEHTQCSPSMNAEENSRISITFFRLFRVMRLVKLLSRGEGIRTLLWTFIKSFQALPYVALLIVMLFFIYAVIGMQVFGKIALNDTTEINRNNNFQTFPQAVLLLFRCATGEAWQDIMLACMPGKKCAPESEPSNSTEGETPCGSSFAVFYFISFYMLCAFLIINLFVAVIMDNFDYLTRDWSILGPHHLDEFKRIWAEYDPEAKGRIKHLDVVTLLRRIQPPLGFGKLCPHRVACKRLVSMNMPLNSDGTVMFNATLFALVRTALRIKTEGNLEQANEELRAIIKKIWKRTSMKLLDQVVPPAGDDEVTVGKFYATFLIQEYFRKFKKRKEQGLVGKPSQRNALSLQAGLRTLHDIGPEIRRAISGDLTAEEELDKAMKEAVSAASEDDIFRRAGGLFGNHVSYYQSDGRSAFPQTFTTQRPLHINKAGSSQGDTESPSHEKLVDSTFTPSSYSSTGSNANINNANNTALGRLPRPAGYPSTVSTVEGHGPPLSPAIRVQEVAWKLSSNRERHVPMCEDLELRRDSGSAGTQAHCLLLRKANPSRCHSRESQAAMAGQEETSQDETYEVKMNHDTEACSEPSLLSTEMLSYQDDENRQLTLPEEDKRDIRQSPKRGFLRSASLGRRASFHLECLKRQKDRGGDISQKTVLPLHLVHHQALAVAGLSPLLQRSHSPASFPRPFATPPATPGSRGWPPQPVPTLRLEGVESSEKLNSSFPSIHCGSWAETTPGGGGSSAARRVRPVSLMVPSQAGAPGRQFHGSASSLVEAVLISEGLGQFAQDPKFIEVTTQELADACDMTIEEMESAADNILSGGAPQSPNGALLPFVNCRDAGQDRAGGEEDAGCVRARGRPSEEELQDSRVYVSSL

Take “Voltage-dependent L-type calcium channel subunit beta-2 (Rattus norvegicus (Rat)), Q8VGC3-2 M245A”: the “effect of a mutation on the interaction” value is listed as “decreasing interaction”.
